{
  "source": "paper PMC12176259",
  "about": "“Bacterial transcriptional repressor NrdR – a flexible multifactorial nucleotide sensor”",
  "binders": {"B1": {"name": "EcoEF7,3 (dsDNA)", "DNA 1": "GCACTATTTGCTATATATTGTGTGGTTGAATCTTTTTTCAACTACATCTAGTATCTC", "DNA 2": "GAGATACTAGATGTAGTTGAAAAAAGATTCAACCACACAATATATAGCAAATAGTGC"}, "B2": {"name": "ribX promoter (dsDNA)", "DNA 1": "AGCATCGATCCTTTATCTCAAAAGCGTTGCGCCTTTGTTGTATCGTCAGTTCAGGGT", "DNA 2": "ACCCTGAACTGACGATACAACAAAGGCGCAACGCTTTTGAGATAAAGGATCGATGCT"}},
  "key": {"[1]": {"target": "T1, NrdR (EcoNrdR) (Escherichia coli K-12 MG1655, UniProt P0A8D0 1-149)", "T1 sequence": "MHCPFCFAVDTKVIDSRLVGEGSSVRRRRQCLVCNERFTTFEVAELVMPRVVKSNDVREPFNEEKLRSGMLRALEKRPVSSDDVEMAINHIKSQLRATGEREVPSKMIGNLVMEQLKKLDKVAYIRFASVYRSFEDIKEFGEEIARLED", "assay": "cryo-EM structure (4 A); ATP + dATP 0.5 mM each, 5 mM Mg2+, Zn2+; NrdR tetramer; MST: 17 mM Tris-HCl pH 8.6, 100 mM NaCl, 7 mM MgCl2, 0.33 mM TCEP, 0.025% Tween-20, nucleotides 1 mM each, 5 nM Cy5-DNA, room temperature", "conditions": "protein: recombinant; tags: C-terminal His6; chain copies: 4; blunt"}, "[2]": {"target": "T1, NrdR (EcoNrdR)", "assay": "MST; ATP + dATP; MST: 17 mM Tris-HCl pH 8.6, 100 mM NaCl, 7 mM MgCl2, 0.33 mM TCEP, 0.025% Tween-20, nucleotides 1 mM each, 5 nM Cy5-DNA, room temperature", "conditions": "protein: recombinant; tags: C-terminal His6; chain copies: 4; label: 5'-Cy5 sense strand; blunt"}},
  "data": [
    {"binder": "B1", "values": [
      {"measurement": "binding result", "setting": "[1]", "result": "binds"}
    ]},
    {"binder": "B2", "values": [
      {"measurement": "binding result", "setting": "[2]", "result": "no binding"}
    ]}
  ]
}
